B1: Dynamin-1-like protein (Rattus norvegicus (Rat)), O35303 (parent)
chain: MEALIPVINKLQDVFNTVGADIIQLPQIVVVGTQSSGKSSVLESLVGRDLLPRGTGVVTRRPLILQLVHVSPEDKRKTTGEENDPATWKNSRHLSKGVEAEEWGKFLHTKNKLYTDFDEIRQEIENETERISGNNKGVSPEPIHLKVFSPNVVNLTLVDLPGMTKVPVGDQPKDIELQIRELILRFISNPNSIILAVTAANTDMATSEALKISREVDPDGRRTLAVITKLDLMDAGTDAMDVLMGRVIPVKLGIIGVVNRSQLDINNKKSVTDSIRDEYAFLQKKYPSLANRNGTKYLARTLNRLLMHHIRDCLPELKTRINVLAAQYQSLLNSYGEPVDDKSATLLQLITKFATEYCNTIEGTAKYIETSELCGGARICYIFHETFGRTLESVDPLGGLNTIDILTAIRNATGPRPALFVPEVSFELLVKRQIKRLEEPSLRCVELVHEEMQRIIQHCSNYSTQELLRFPKLHDAIVEVVTCLLRKRLPVTNEMVHNLVAIELAYINTKHPDFADACGLMNNNIEEQRRNRLARELPSAVSRDKSSKVPSALAPASQEPSPAASAEADGKLIQDNRRETKNVASAGGGIGDGGRIGDGGQEPTTGNWRGMLKTSKAEELLAEEKSKPIPIMPASPQKGHAVNLLDVPVPVARKLSAREQRDCEVIERLIKSYFLIVRKNIQDSVPKAVMHFLVNHVKDTLQSELVGQLYKSSLLDDLLTESEDMAQRRKEAADMLKALQGASQIIAEIRETHLW

Variants of: B1
Details: with kapca_rat Prkaca

Row | Variant | effect of a mutation on the interaction
1 | S656A | disrupting interaction
